Measured values reported in patent publication US20180142032A1 (Sanofi, published 2018).
Where a chain is given by its changes, count along the chain named.

T1: mLAMP1_ΔGYQTI (mouse, UniProt P11438 25-369)
T1 construct: on cells; also called pXL6009; murine LAMP1; not shown: murine transmembrane domain and cytoplasmic tail with GYQTI replaced by 5 Ala
T1 sequence: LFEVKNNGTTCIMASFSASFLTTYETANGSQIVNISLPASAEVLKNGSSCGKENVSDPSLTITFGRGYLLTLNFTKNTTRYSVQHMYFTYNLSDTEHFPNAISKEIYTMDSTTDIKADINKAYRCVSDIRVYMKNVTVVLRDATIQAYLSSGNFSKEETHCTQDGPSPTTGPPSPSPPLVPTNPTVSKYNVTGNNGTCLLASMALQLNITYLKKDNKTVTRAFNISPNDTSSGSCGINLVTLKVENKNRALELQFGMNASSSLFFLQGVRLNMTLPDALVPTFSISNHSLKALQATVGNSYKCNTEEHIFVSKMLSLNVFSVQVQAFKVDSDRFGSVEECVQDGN

T2: mLAMP1_hseq11_ΔGYQTI (mouse; human, UniProt P11438 25-369)
T2 construct: on cells; numbering read as for pXL6041; also called pXL6048; not shown: murine transmembrane domain and cytoplasmic tail with GYQTI replaced by 5 Ala
T2 chain: T1 sequence with S151N, G152S, N153S, K156R, E157G

T3: LAMP1_L12_mLAMP1_L34::histag (human/mouse hybrid)
T3 construct: human LAMP1 (29-195) and mouse LAMP1 (190-369), His tag; also called Loop1-2: hLAMP1 Loop3-4: mLAMP1
T3 chain: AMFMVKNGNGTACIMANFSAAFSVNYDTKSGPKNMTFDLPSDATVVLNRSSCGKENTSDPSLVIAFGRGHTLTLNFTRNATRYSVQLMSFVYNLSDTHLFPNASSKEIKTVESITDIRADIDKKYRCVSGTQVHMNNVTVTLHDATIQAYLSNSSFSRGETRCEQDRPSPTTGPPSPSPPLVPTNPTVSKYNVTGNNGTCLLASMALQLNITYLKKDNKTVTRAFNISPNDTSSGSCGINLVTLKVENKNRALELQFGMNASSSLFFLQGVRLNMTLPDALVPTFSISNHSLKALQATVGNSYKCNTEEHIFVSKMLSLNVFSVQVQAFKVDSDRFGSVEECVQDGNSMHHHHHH

T4: LAMP1_L123_mLAMP1_L4::histag (human/mouse hybrid, UniProt P11279 29-375)
T4 construct: human LAMP1 (29-309) and mouse LAMP1 (299-369), His tag; also called Loop1-3: hLAMP1 Loop4: mLAMP1
T4 chain: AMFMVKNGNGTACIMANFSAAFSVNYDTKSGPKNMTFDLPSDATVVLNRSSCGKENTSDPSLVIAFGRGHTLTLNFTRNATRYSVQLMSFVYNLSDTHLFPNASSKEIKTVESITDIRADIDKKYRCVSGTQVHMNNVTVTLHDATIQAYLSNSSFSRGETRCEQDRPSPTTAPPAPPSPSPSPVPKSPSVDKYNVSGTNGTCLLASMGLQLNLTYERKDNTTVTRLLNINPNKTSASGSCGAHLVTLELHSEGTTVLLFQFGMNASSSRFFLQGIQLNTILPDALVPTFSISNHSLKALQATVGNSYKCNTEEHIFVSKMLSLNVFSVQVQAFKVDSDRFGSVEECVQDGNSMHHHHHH

T5: mLAMP1_L12_LAMP1_L34::histag (mouse/human hybrid)
T5 construct: mouse LAMP1 (25-189) and human LAMP1 (196-382), His tag; also called Loop1-2: mLAMP1 Loop3-4: hLAMP1
T5 chain: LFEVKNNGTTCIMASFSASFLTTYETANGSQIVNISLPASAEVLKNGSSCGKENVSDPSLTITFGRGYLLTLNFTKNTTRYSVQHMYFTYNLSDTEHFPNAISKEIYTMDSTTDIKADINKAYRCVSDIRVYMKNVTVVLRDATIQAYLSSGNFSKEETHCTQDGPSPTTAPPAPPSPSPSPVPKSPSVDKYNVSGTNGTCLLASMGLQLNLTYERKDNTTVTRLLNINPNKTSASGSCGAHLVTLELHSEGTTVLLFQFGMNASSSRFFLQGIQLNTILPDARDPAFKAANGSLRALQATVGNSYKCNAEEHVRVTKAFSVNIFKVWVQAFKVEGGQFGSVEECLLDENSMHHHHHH

T6: mLAMP1_L1_LAMP1_L234::histag (mouse/human hybrid)
T6 construct: also called Loop1: mLAMP1 Loop2-4: hLAMP1
T6 chain: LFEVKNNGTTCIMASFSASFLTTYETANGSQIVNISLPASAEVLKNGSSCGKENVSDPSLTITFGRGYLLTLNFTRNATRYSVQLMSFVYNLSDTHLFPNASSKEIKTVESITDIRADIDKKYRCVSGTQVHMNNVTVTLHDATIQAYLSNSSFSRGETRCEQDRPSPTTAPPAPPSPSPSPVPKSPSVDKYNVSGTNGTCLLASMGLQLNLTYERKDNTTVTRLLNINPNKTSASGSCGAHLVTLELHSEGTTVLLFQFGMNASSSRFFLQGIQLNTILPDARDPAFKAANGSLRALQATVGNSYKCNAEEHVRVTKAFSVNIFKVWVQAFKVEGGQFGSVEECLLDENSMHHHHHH

B1: MAb1 (antibody, mouse IgG2a, kappa)
heavy: QVQLQQSGAELVKPGASVKMSCKASGYIFTNYNIHWVKKSPGQGLEWIGAIYPGNGDAPYSQKFKDKATLTADKSSSTTYMQLSRLTSEDSAVYYCVRANWDVAFAYWGQGTLVSVSAAKTTAPSVYPLAPVCGDTTGSSVTLGCLVKGYFPEPVTLTWNSGSLSSGVHTFPAVLQSDLYTLSSSVTVTSSTWPSQSITCNVAHPASSTKVDKKIEPRGPTIKPCPPCKCPAPNLLGGPSVFIFPPKIKDVLMISLSPIVTCVVVDVSEDDPDVQISWFVNNVEVHTAQTQTHREDYNSTLRVVSALPIQHQDWMSGKEFKCKVNNKDLPAPIERTISKPKGSVRAPQVYVLPPPEEEMTKKQVTLTCMVTDFMPEDIYVEWTNNGKTELNYKNTEPVLDSDGSYFMYSKLRVEKKNWVERNSYSCSVVHEGLHNHHTTKSFSRTPGK
light: DIQMTQSPPSLSASLGGKVTITCKASQDIDRYMAWYQDKPGKGPRLLIHDTSTLQPGIPSRFSGSGSGRDYSFSISNLEPEDIATYYCLQYDNLWTFGGGTKLEIKRADAAPTVSIFPPSSEQLTSGGASVVCFLNNFYPKDINVKWKIDGSERQNGVLNSWTDQDSKDSTYSMSSTLTLTKDEYERHNSYTCEATHKTSTSPIVKSFNRNEC
notes: murine monoclonal IgG, kappa, from hybridoma; also called murine MAb1
B2: MAb2 (antibody, mouse IgG1, kappa)
heavy: QVQLQQSAAELARPGASVKMSCKASGYTFTSYTMHWVKQRPGQGLEWIGYFNPSSGYPEYNQKFKDKTTLTADKSSNTAFIQLNSLTSEDSAVYYCSRGYYYGSRGYALDFWGQGASVTVSSAKTTPPSVYPLAPGSAAQTNSMVTLGCLVKGYFPEPVTVTWNSGSLSSGVHTFPAVLQSDLYTLSSSVTVPSSTWPSETVTCNVAHPASSTKVDKKIVPRDCGCKPCICTVPEVSSVFIFPPKPKDVLTITLTPKVTCVVVDISKDDPEVQFSWFVDDVEVHTAQTQPREEQFNSTFRSVSELPIMHQDWLNGKEFKCRVNSAAFPAPIEKTISKTKGRPKAPQVYTIPPPKEQMAKDKVSLTCMITDFFPEDITVEWQWNGQPAENYKNTQPIMDTDGSYFVYSKLNVQKSNWEAGNTFTCSVLHEGLHNHHTEKSLSHSPGK
light: NIVLTQSPVSLAVSLGQRATISCRASESVDINGNTFMHWYQQKPGQSPKLVIYAASNIESGVPARFSGSGSSTDFTFTIDPVEADDVATYYCQQNIEDPWTFGGGTKVEIKRADAAPTVSIFPPSSEQLTSGGASVVCFLNNFYPKDINVKWKIDGSERQNGVLNSWTDQDSKDSTYSMSSTLTLTKDEYERHNSYTCEATHKTSTSPIVKSFNRNEC
notes: murine monoclonal IgG, kappa, from hybridoma; also called murine MAb2

How the values were obtained:
[1] = target: T1, mLAMP1_ΔGYQTI; assay: flow cytometry, transfected 293-F cells, experiment 1
[2] = target: T2, mLAMP1_hseq11_ΔGYQTI; assay: as above
[3] = target: T3, LAMP1_L12_mLAMP1_L34::histag; assay: ELISA
[4] = target: T4, LAMP1_L123_mLAMP1_L4::histag; assay: ELISA
[5] = target: T5, mLAMP1_L12_LAMP1_L34::histag; assay: ELISA
[6] = target: T6, mLAMP1_L1_LAMP1_L234::histag; assay: ELISA

| Binder | binding result [1] | mean fluorescence [1] | binding result [2] | mean fluorescence [2] | EC50 [3] | EC50 [4] | binding result [5] | EC50 [6] | binding result [6] |
| --- | --- | --- | --- | --- | --- | --- | --- | --- | --- |
| B1 | no binding | 4 | no binding | 6 | 0.18 nM | 0.16 nM | no binding | 0.15 nM | – |
| B2 | no binding | 21 | no binding | 28 | 0.25 nM | 0.25 nM | no binding | – | no binding |
